Numbering of substitutions follows the chain as printed.

The results in this text go back to patent publication US20220112288A1 (published 2022).

B1: 75110_05L07A (antibody, V domains shown)
VH: EVQLVESGGGLVQPGGSLRLSCAASGFTFSSYWMSWVRQAPGKGLEWVANINQDGSDKYYVDSVKGRFTISRDNVKNSLYLQINSLRAEDTAVYYCAREGGQWLTLDYWGQGTLVTVSS
VL: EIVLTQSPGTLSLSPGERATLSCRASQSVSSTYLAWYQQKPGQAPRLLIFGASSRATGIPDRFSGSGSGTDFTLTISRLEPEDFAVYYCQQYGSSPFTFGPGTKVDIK
notes: Tested as antibody purified from AlivaMab Mouse Kappa hybridoma (human V regions, kappa light chain, mouse Fc captured by anti-mouse Fc sensors)
B2: 75110_11D03A (antibody, V domains shown)
VH: B1 VH with S56N, D57E, V75A, Y80F, I83M, T105A, T113A
VL: DIQMTQSPSSVSASVGDRVTITCRASQGISSWLAWYQQKPGKAPKFLISGASSLQSGVPSRFSGSGSGTDFTLTISSLQPEDFATYYCQQANSFPWTFGQGTKVEIK
notes: as for B1
B3: 75110_07H07A (antibody, V domains shown)
VH: B1 VH with L4V, N52K, Q53E, D54E, D57E, V75A, I83M, A97V, T105A
VL: B2 VL with A13G, F46L, S49F, E105Q
notes: as for B1
B4: 75110_09G15A (antibody, V domains shown)
VH: B1 VH with S31D, D57E, Y60S, V75A, I83M, V93I, Y94F, T105A
VL: B2 VL with F46L, S49Y, S76N, A84T, S93I
notes: as for B1
B5: 75110_09N20A (antibody, V domains shown)
VH: B1 VH with Q53E, D57E, V75A, I83M, A97V, T105A
VL: B2 VL with F46L, S49Y, G50A, R61S, S76N, E105A
notes: as for B1
B6: 75110_12H17A (antibody, V domains shown)
VH: B1 VH with S31D, N52K, Q53E, S56N, D57E, V75A, Y80F, I83M, T105A, T113A
VL: B2 VL with S63T
notes: as for B1
B7: 75110_12C19A (antibody, V domains shown)
VH: B1 VH with N52K, Q53E, V75A, I83M, Y94H, A97V, T105A
VL: B2 VL with A13G, F46L, S49Y, A84V
notes: as for B1
B8: 75110_06C16A (antibody, V domains shown)
VH: QVQLQESGPGLVTPSETLSLSCTVSGGSISDYYWSWIRQPGGKGLEWIGRIYSSGSTNYNPSLKSRVTMSVDTSKNQFSLKLSSVTAADTAVYFCARDREDYYYYGMDVWGQGTTVTVSS
VL: DIQMTQSPSSLSASVGDRVTITCQASHDISNYLNWYQQKPGKAPKLLIYAASNLETGVPSRFSGSGSGTDFSFTISSLQPEDIATYYCQQYDHLPLTFGGGTKVEIK
notes: as for B1
B9: 75110_06K03A (antibody, V domains shown)
VH: QVQLQESGPGLVKPSETLSLTCTVSGGSISTYYWSWIRQPAGKGLEWIGRINTSGSTTYNPSLKSRVTMSVDTSKNQFSLKLSSVTAADTAVYYCARELERYYYYGMDVWGQGTTVTVSS
VL: B8 VL with H27Q, A50Y, N53I, S72T, H93S
notes: as for B1
B10: 75110_06G04A (antibody, V domains shown)
VH: B9 VH with Q5L, T31S, N52Y, T53I, T58N, V71I, K75E, K81N, Y102P
VL: B8 VL with H27Q, A50N, N53T, S72T, H93N, I106F
notes: as for B1
B11: 75110_08D24A (antibody, V domains shown)
VH: B9 VH with T31G, Y32F, N52Y, G55E, S56N, T58N, E98D, L99R, R101G
VL: B8 VL with H27Q, S72T, H93S, L96I, G100Q, K103R, V104L
notes: as for B1
B12: 75110_06E14A (antibody, V domains shown)
VH: B8 VH with T13K, S21T, D31N, Y33F, G41A, S56N, F94Y
VL: B8 VL with H27Q, A50G, N53I, S63T, S72T, H93S, L96I, G100Q, K103R, V104L
notes: as for B1
B13: 75110_08M20A (antibody, V domains shown)
VH: B9 VH with G8D, T31S, N52Y, T53A, T58N, E98D, L99R, R101G
VL: B8 VL with H27Q, N31K, K45N, S72T, T85A, H93S, L96I, G100Q, K103R, V104L
notes: as for B1
B14: 75110_08H11A (antibody, V domains shown)
VH: EVQLVESGGGLVQPGGSLRLSCAASGFTFSSYDMHWVRQATGKGLEWVSTIGTAGDTYYPGSVKGRFTISRENAKNSLYLQMNSLRAGDTAVYYCARGGYSYYGMDVWGQGTTVTVSS
VL: EIVLTQSPGTLSLSPGERATLSCGASQSVSSTYLAWYQQKPGQAPRLLIYGASSRATGIPDRFSGSGSGTDFTLTISRLEPEDFAVYYCQQFGSSPFTFGPGTKVDIK
notes: Tested as antibody purified from AlivaMab Mouse Kappa hybridoma (human V regions, kappa light chain, mouse Fc captured by anti-mouse Fc sensors); also called 75110_08H1lA
B15: 75110_05K11A (antibody, V domains shown)
VH: B14 VH with A40P, G61A, Y100F, S101Y
VL: B14 VL with A19V, G24R, S31N, A85V, F92H
notes: as for B1
B16: 75110_10O16A (antibody, V domains shown)
VH: B14 VH with S31N, Y32S, Y100L, S101Y
VL: B14 VL with I2N, G24R, T32S, Q90H
notes: Tested as antibody purified from AlivaMab Mouse Kappa hybridoma (human V regions, kappa light chain, mouse Fc captured by anti-mouse Fc sensors); also called 75110_10016A
B17: 75110_13C07A (antibody, V domains shown)
VH: B14 VH with G10V, S31N, I69L, N83H, G99A, S101G
VL: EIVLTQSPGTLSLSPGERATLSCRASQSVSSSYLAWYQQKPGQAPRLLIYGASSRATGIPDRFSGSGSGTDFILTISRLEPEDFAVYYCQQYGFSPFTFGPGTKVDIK
notes: as for B1
B18: 75110_08K12A (antibody, V domains shown)
VH: B14 VH with K75E, V92L, G99D, S101Y
VL: B14 VL with G24R, S54N, S94T
notes: as for B1
B19: 75110_08H06A (antibody, V domains shown)
VH: B14 VH with S31N, S101D
VL: B14 VL with G24R, V29I, S30T, T32I, Q38R, F92Y
notes: as for B1
B20: 75110_07E04A (antibody, V domains shown)
VH: B14 VH with A24V, N76K, S77F, S101Y
VL: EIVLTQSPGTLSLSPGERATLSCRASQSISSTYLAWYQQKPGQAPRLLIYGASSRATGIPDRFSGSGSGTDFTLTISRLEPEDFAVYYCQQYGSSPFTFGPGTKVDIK
notes: as for B1
B21: 75110_10N21A (antibody, V domains shown)
VH: B14 VH with A40V, S101Y
VL: B14 VL with G24R, V29F, S30I, T32S, E80D, F92S, S94N, I107V
notes: as for B1
B22: 75110_14H13A (antibody, V domains shown)
VH: B14 VH with S31N, E72K, N83I, Y100D, S101Y
VL: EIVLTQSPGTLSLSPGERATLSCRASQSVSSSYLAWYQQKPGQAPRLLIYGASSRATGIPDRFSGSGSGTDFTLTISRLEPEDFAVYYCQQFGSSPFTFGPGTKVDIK
notes: as for B1
B23: 75110_10L22A (antibody, V domains shown)
VH: B14 VH with S84G, G99N, S101F, M105V
VL: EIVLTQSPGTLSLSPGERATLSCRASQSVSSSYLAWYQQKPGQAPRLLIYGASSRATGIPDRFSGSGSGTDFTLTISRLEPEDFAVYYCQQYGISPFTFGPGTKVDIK
notes: as for B1
B24: 75110_06D16A (antibody, V domains shown)
VH: QVQLQQWGAGLLKPSETLSLTCAVYGGSFSGYYWSWIRQPPGKGLEWIGEINHSGSTNYNPSLKSRVTISVVTSKNQFSLKLSSVTAADTAVYYCARVLNWFDPWGQGTLVTVSS
VL: B2 VL with G28D, S30A, S31D, F46L, S49Y, G50A, L54F, Y87F, W96Y, V104L
notes: as for B1
B25: 75110_07B16A (antibody, V domains shown)
VH: B24 VH with P40S, H53Q, V72D, N76D, L99I, P104S, T109S
VL: B2 VL with F46L, S49Y, G50D, L54F, P80T, E81D, W96Y, V104L
notes: as for B1

The assay addresses T1, Recombinant human CD4 (R&D Systems, Cat. 10327-CD) (human, UniProt P01730 26-390, limits assumed).
T1 construct: Bought protein; also called huCD4
The assay is described as follows: BLI (Octet Red384), purified antibody on anti-mouse Fc sensors, human CD4 100/50/25 nM, global 1:1 fit.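 Further: antibodies loaded at 10 µg/mL, curves fitted across association and dissociation phases, with an unrelated mouse-derived antibody serving as internal reference control.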 For orientation: In BLI a coated tip is dipped into the sample, and binding shifts an interference pattern.
For the molecule B1, the equilibrium dissociation constant (Kd) – broadly, the constant that tells how readily two partners part at equilibrium – was 15 nM; the Response is 0.28; the off-rate (koff) – broadly, a measure of how fast the partners let go of each other – stood at 0.0016 s⁻¹; the kon – broadly, the rate constant with which the complex forms – was determined as 110000 M⁻¹ s⁻¹.
For B2, in that order: 3.2 nM, 0.09, 0.0013 s⁻¹ and 420000 M⁻¹ s⁻¹.
For B3, in that order: 9.4 nM, 0.16, 0.0012 s⁻¹ and 130000 M⁻¹ s⁻¹.
Take B4: the equilibrium dissociation constant (Kd) worked out at 48 nM, the Response stood at 0.21, the koff is 0.004 s⁻¹ and the kon was found to be 85000 M⁻¹ s⁻¹.
For B5, in that order: 53 nM, 0.09, 0.0045 s⁻¹ and 86000 M⁻¹ s⁻¹.
For the molecule B6, the equilibrium dissociation constant (Kd) amounted to 26 nM, the Response is 0.19, the koff amounted to 0.0033 s⁻¹ and the kon stood at 120000 M⁻¹ s⁻¹.
In the same order, the values of B7 are 5 nM, 0.08, 0.0015 s⁻¹ and 290000 M⁻¹ s⁻¹.
For B8, in that order: 16 nM, 0.15, 0.0012 s⁻¹ and 75000 M⁻¹ s⁻¹.
In the same order, the values of B9 are 2.2 nM, 0.11, 3.6e-05 s⁻¹ and 16000 M⁻¹ s⁻¹.
With B10, the Kd amounted to 6 nM, the Response is 0.07, the koff was found to be 0.0015 s⁻¹ and the kon amounted to 250000 M⁻¹ s⁻¹.
Take B11: the Kd came out at 22 nM, the Response was 0.11, the koff was 0.00027 s⁻¹ and the association rate constant (kon) came to 12000 M⁻¹ s⁻¹.
Turning to B12, the Kd is 14 nM, the Response is 0.11, the dissociation rate constant (koff) turned out to be 0.00026 s⁻¹ and the kon worked out at 18000 M⁻¹ s⁻¹.
For B13, the dissociation constant Kd worked out at 9.2 nM, the Response turned out to be 0.16, the koff is 0.00091 s⁻¹ and the kon stood at 99000 M⁻¹ s⁻¹.
For B14, in that order: 26 nM, 0.04, 3.6e-05 s⁻¹ and 1400 M⁻¹ s⁻¹.
For B15, in that order: < 0.001 nM, 0.04, < 1e-07 s⁻¹ and 36000 M⁻¹ s⁻¹.
In the same order, the values of B16 are 2.4 nM, 0.08, 0.00035 s⁻¹ and 140000 M⁻¹ s⁻¹.
For B17, the Kd was 1.7 nM, the Response is 0.11, the dissociation rate constant (koff) was 0.00016 s⁻¹ and the on-rate constant (kon) worked out at 92000 M⁻¹ s⁻¹.
Take B18: the Kd was found to be 220 nM, the Response was 0.05 and the dissociation rate constant (koff) came to 0.00022 s⁻¹.
On to B19, for which the Kd was 11 nM, the Response stood at 0.04, the koff stood at 0.00043 s⁻¹ and the kon amounted to 39000 M⁻¹ s⁻¹.
On to B20, for which the dissociation constant (Kd) is < 0.001 nM, the Response came out at 0.07, the off-rate (koff) was < 1e-07 s⁻¹ and the kon turned out to be 35000 M⁻¹ s⁻¹.
For B21, in that order: 0.59 nM, 0.09, 3.2e-05 s⁻¹ and 55000 M⁻¹ s⁻¹.
In the same order, the values of B22 are 2.1 nM, 0.08, 0.00011 s⁻¹ and 54000 M⁻¹ s⁻¹.
In the same order, the values of B23 are 12 nM, 0.03, 0.00045 s⁻¹ and 37000 M⁻¹ s⁻¹.
For the molecule B24, the Kd is 2.8 nM, the Response is 0.25, the koff is 0.00028 s⁻¹ and the kon is 100000 M⁻¹ s⁻¹.
In the same order, the values of B25 are 3 nM, 0.24, 0.00043 s⁻¹ and 140000 M⁻¹ s⁻¹.
